The record followed here is publication PMC7910490, “The biosynthetic pathway of potato solanidanes diverged from that of spirosolanes due to evolution of a dioxygenase” (Nature Communications, 2021).

Substrate in series [1]: C[C@H]1CC[C@]2(NC1)O[C@H]1C[C@H]3[C@@H]4CC=C5C[C@@H](O)CC[C@]5(C)[C@H]4CC[C@]3(C)[C@H]1[C@@H]2C
The series is described as follows: purified protein, by the assay type. On the set-up: LC-MS of product formation by purified recombinant enzyme; Michaelis-Menten nonlinear regression (ANEMONA). Particulars: pH 7.2. As for the experimental part:
(§1) An in vitro enzyme activity assay was performed using 100 μl of reaction mixture containing 100 mM Bis–Tris–HCl (pH 7.2), 5 mM 2-oxoglutarate, 10 mM sodium ascorbate, 0.2 mM FeSO4, 25 μM substrate, and 1 μg purified recombinant proteins as the enzyme. The reaction was initiated by the addition of the enzyme and was carried out at 30 °C for 30 min. The reaction was then stopped by incubation for 2 min at 90 °C. After centrifugation, 20 μl of supernatant was diluted with 180 μl methanol and filtered through 0.2-μm nylon membrane filters (Acrodisc, Waters). An aliquot (2 μl) was analyzed using LC–MS, as described in “Feeding experiments” above. We determined the kinetic parameters of the recombinant DPS and St7070 in triplicate assays. The assays were conducted as described above, with minor modifications. Briefly, 0.1 μg purified DPS protein or 0.02 μg purified St7070 were used. […] A 20 μl sample of assay mixture was diluted with 180 μl methanol and filtered through 0.2-μm nylon membrane filters (Acrodisc, Waters). An aliquot (2 μl) was analyzed using LC–MS, as described above. The kinetic parameters were determined by nonlinear regression, using the ANEMONA program. Supplementary Fig. 21| Enzyme kinetics of purified recombinant DPS and St7070 with a-solamarine and (22S,25S)-spirosol-5-en-3b-ol. […]

Substrate in series [2]: C[C@H]1CC[C@]2(NC1)O[C@H]1C[C@H]3[C@@H]4CC=C5C[C@@H](O[C@@H]6O[C@H](CO)[C@H](O)[C@H](O[C@@H]7O[C@H](CO)[C@@H](O)[C@H](O)[C@H]7O)[C@H]6O[C@@H]6O[C@@H](C)[C@H](O)[C@@H](O)[C@H]6O)CC[C@]5(C)[C@H]4CC[C@]3(C)[C@H]1[C@@H]2C
Kind of series: purified protein, by the assay type. On the set-up: LC-MS of product formation by purified recombinant enzyme; Michaelis-Menten nonlinear regression (ANEMONA). Particulars: pH 7.2. As for the experimental part: as §1

B1: St7070 (Solanum tuberosum) (protein)
chain: MASTKVTIPTIDFFNSELKPNTPQWELTKVQVFEALQEFGCFEAIYNKVPNEIREGMFDTLKEVFDFPLSKLIEYREKPFHIYDGQIPSVPLFGSVYSADLVLPNSVETFANTFWSHGNPNFSNVAKSYFKQLMELNGMVEKMVLESLGLKNYIDEFLNSNVYMSRFTNYKVIKGENENKSGLPSHTDSSYLTIIKQNQNGLQVLYKNGEWIELNHTSPNSYIVLSADALMAWTNDRLTSAQHRVVTTGDKDRFSVQLFSLVNPDYTLKVPKELVDEEHPLMYKPFKMPEYNKYLMLGAKNGLGVKNYCGL
The Km is the concentration of substrate that gives half-maximal velocity. Turning to B1, the Km came out at 19.6 ± 0.056 µM in series [1] and 1.7 ± 0.24 µM in series [2].
